Source: patent publication US20110123546A1 (published 2011)

B1: VHH15 (VHH)
VHH: QVQGAGLWGGLVQLGGSLRLSCAASGFTFGYYAMSWVRQAPGKGLEWVSYINDNGGYTAYTDPVKGRFTISRDNAKNILYLHMNNLKPEDTAVYFCAKWGTDAVSSSRYKSHDYDSRGPGTQVTVSS
B2: VHH2 (VHH)
VHH: QVQLQESGGGLVQAGDSLRLSCAASGRTFSSYAMGWFRQAPGKEREFVAAVSSSNSPWYGDSIKGRSTIHRDNAKNTVYLYMNNLKPEDTAVYYCAADLEGERLGESSEYDYWGQGTQVTVSS
B3: VHH1 (VHH)
VHH: QVQLQDSGGGLVQAGDRLSLSCAASGRTFSSYDMAWFRQAPGKEREFVAAITTSEGTWYGDAGKGRFTIARVNAKNTVYLHMNRLKPEDTAVYYCAASNQGGSLQISTNYNYWGQGTQVTVSS
B4: VHH3 (VHH)
VHH: QVQLQESGGGLVQPGGSLRLSCAASGFTFKYYAMSWVRQAPGKGLEWVSYINDNGGYTDYSDSVKGRFTISRDNAKNTLYLHMNRLKPEDTAVYFCAKWDTDAVSSSRYKTHNGDIRGPGTQVTVSS

What follows are binders tested against rhesus rotavirus strain RRV (assay: cell-based or functional assay).

| Binder | % infection of MA104 cells relative to irrelevant VHH (NSP4 Western blot densitometry) |
| --- | --- |
| B1 | 40% |
| B2 | 40% |
| B3 | 40% |
| B4 | 40% |
